Measurements reported in paper PMC11359516, “Methionine Synthase 2 Represses Stem Cell Maintenance of Arabidopsis thaliana in Response to Salt Stress” (Plants, 2024).

T1: GST:AtMS2 (Arabidopsis METHIONINE SYNTHASE 2 fused with GST) (Arabidopsis thaliana, UniProt Q9SRV5 1-765)
T1 construct: METHIONINE SYNTHASE 2 (AtMS2), Arabidopsis thaliana, At3g03780; AtMS2 cDNA cloned into pGEX-4T-1; also called AtMS2 protein fused with GST; AtMS2 in fusion with GST; source: E. coli BL21, purified (glutathione resin)
T1 sequence (looked up): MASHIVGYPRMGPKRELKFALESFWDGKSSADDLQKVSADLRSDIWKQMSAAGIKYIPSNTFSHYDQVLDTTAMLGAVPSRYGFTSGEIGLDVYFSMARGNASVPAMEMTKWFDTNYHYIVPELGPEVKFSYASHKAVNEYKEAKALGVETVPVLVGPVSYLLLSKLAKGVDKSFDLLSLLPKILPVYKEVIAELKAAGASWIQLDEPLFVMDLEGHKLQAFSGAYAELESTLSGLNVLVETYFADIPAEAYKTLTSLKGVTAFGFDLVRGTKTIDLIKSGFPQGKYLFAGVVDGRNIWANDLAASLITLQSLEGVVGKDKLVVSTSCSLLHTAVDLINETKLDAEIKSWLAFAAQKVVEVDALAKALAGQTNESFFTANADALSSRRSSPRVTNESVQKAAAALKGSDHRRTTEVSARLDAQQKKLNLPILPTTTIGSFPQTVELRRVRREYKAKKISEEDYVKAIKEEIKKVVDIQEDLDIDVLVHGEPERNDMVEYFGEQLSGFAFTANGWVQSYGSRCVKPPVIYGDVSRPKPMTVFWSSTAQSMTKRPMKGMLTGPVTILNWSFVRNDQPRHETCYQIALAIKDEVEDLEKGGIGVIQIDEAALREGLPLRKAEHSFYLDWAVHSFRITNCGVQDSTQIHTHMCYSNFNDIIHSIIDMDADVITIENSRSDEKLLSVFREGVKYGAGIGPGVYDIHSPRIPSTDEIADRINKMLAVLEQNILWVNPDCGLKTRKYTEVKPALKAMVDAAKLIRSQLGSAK

T2: MBP:AtMS2 (Arabidopsis thaliana, UniProt Q9SRV5 1-765)
T2 construct: METHIONINE SYNTHASE 2 (AtMS2), Arabidopsis thaliana, At3g03780; cloned into the pMBP-c vector; source: E. coli BL21, purified (amylose resin)
T2 sequence (looked up): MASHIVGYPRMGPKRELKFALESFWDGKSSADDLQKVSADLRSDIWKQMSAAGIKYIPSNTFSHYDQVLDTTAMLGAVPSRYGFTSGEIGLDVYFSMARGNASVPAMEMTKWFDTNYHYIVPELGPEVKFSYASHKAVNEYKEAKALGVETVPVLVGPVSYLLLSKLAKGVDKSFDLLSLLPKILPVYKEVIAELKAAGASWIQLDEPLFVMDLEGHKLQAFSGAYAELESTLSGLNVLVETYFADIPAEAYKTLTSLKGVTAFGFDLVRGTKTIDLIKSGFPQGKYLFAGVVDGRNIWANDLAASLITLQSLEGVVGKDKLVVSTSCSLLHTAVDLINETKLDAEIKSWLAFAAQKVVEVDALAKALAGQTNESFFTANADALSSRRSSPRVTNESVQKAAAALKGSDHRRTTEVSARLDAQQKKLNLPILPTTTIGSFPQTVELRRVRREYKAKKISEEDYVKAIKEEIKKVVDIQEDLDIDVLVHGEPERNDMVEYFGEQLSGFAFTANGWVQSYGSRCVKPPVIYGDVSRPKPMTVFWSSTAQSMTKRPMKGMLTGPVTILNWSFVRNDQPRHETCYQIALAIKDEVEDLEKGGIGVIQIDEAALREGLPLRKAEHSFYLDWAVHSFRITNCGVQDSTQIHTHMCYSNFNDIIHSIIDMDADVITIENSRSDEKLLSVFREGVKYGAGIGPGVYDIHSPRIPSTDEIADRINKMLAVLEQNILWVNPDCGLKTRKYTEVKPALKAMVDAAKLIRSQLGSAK


Legend:
[1] = target: T1, GST:AtMS2 (Arabidopsis METHIONINE …); assay: pull-down; MBP fusions or MBP immobilised on amylose resin, incubated with GST:AtMS2; 50 mM Tris-HCl pH 7.4, 200 mM NaCl, 5.0% glycerol, 1.5% Triton X-100, 10 mM NaF, 1.0 mM Na3VO4, 1.0 mM PMSF; 1.5 h at 4 °C; immunoblot with anti-GST antibody; details: both partners purified
MBP:AtMS2 = target: T2, MBP:AtMS2; assay: native gel or EMSA; super shift of a Texas red-labeled WUS or WOX5 promoter probe; 20 uL binding buffer (10 mM Hepes-KOH pH 7.8, 20 mM KCl, 10 mM MgCl2, 1 mM DTT, 0.1% BSA, 5% glycerol, 0.5% Triton-X100, 20 ng/uL salmon sperm DNA), 22 °C, 30 min; 6% polyacrylamide gel; details: both partners purified

| Binder | binding result [1] | binding result (MBP:AtMS2) |
| --- | --- | --- |
| MBP (maltose-binding protein):WUS fusion protein (natural protein, Arabidopsis thaliana, UniProt Q9SB92 1-292, looked up, WUSCHEL (WUS), Arabidopsis thaliana, At2g17950; cloned into the pMBP-c vector; also called MBP:WUS; MBP-tagged WUS; source: E. coli BL21, purified (amylose resin)) MEPPQHQHHHHQADQESGNNNNNKSGSGGYTCRQTSTRWTPTTEQIKILKELYYNNAIRSPTADQIQKITARLRQFGKIEGKNVFYWFQNHKARERQKKRFNGTNMTTPSSSPNSVMMAANDHYHPLLHHHHGVPMQRPANSVNVKLNQDHHLYHHNKPYPSFNNGNLNHASSGTECGVVNASNGYMSSHVYGSMEQDCSMNYNNVGGGWANMDHHYSSAPYNFFDRAKPLFGLEGHQEEEECGGDAYLEHRRTLPLFPMHGEDHINGGSGAIWKYGQSEVRPCASLELRLN | binds | binds |
| MBP:WOX4 (natural protein, Arabidopsis thaliana, UniProt Q6X7J9 1-251, looked up, WUSCHEL-RELATED HOMEOBOX 4 (WOX4), Arabidopsis thaliana, At1g46480; cloned into the pMBP-c vector; also called MBP-tagged WOX4; source: E. coli BL21, purified (amylose resin)) MKVHEFSNGFSSSWDQHDSTSSLSLSCKRLRPLAPKLSGSPPSPPSSSSGVTSATFDLKNFIRPDQTGPTKFEHKRDPPHQLETHPGGTRWNPTQEQIGILEMLYKGGMRTPNAQQIEHITLQLGKYGKIEGKNVFYWFQNHKARERQKQKRNNLISLSCQSSFTTTGVFNPSVTMKTRTSSSLDIMREPMVEKEELVEENEYKRTCRSWGFENLEIENRRNKNSSTMATTFNKIIDNVTLELFPLHPEGR | binds | – |
| MBP:WOX5 (natural protein, Arabidopsis thaliana, UniProt Q8H1D2 1-182, looked up, WUSCHEL-RELATED HOMEOBOX 5 (WOX5), Arabidopsis thaliana, At3g11260; cloned into the pMBP-c vector; also called MBP-tagged WOX5; source: E. coli BL21, purified (amylose resin)) MSFSVKGRSLRGNNNGGTGTKCGRWNPTVEQLKILTDLFRAGLRTPTTDQIQKISTELSFYGKIESKNVFYWFQNHKARERQKRRKISIDFDHHHHQPSTRDVFEISEEDCQEEEKVIETLQLFPVNSFEDSNSKVDKMRARGNNQYREYIRETTTTSFSPYSSCGAEMEHPPPLDLRLSFL | binds | binds |
